The data set deals with cyanobacterial flavodoxin.

Turning to “PSI-MeHydA complex (chimeric photosystem I carrying PsaC-MeHydA, from strain ΨH3^H6)”, the “flavodoxin photoreduction turnover rate” value was 0.7±0.1 Flvd s^-1 (PSI)^-1, the “fold decrease of flavodoxin reduction against WT PSI” value is recorded as “lowers flavodoxin reduction by a factor of 6-8”, the “linear rate of flavodoxin photoreduction relative to JVD-1b^H6 PSI” value is on record as 12.3±2.4% relative to JVD-1b^H6 PSI and the “linear rate of flavodoxin photoreduction relative to WT^H6 PSI” value is listed as “˜15.9±2.4% that of WT^H6”.

For “wild-type photosystem I purified from strain JVD-1B^H6”, the “flavodoxin photoreduction turnover rate” value is recorded as 5.7±0.3 Flvd s^-1 (PSI)^-1.

As for “wild-type photosystem I purified from strain WT^H6 (PBC4-2[pBSEP5.8])”, the “flavodoxin photoreduction turnover rate” value is recorded as 4.4±0.6 Flvd s^-1 (PSI)^-1.
